Target: the molecule itself
Test: cryo-EM structure

B1: full-length mouse TRPML2 (mmTRPML2) with N-terminal maltose-binding protein (natural protein, UniProt Q8K595-1 1-566, looked up)
chain: MPGDEETLDLPAWNRVPDLTWGPHHRSAMASLDSEVREECLREDLKFYFMSPCEKYRARRQIPWKLGLQILKIVMVTTQLVRFGLSNQLVVAFKEDNTVAFKHLFLKGFSGVDEDDYSCSIYTQENTYESIFFAIKQYRHLKNISLATLGYGESEDNRTGLKVCKQHYKTGAMFSSNETLNIDSDIETDCIHLDLQVLTTEPEDWAQTSFFRLDFYRLVQVDISFALKGIDLQAVHSREIPDCYLFQNTITFDNTAHSGKIKIYLNSEANIEECKNMNISGSTQRSTHYLLVFDVFVIMICLASLILCTRSIVLALRLRKRFLNFFLEKYKQRVCGADQWEFVNGWYVLVTISDLMTIIGSILKMEIKAKKLTNYDVCSILLGTSTLFVWVGVIRYLGYFQTYNVLILTMQASLPKVLRFCACAGMIYLGYTFCGWIVLGPYHEKFENLNIVAECLFSLVNGDDMFATFAQIQQKSILVWLFSRLYLYSFISLFIYMVLSLFIALITDSYHTIKKYQQHGFPETDLQKFLKESGSKDGYQKQPSALLSCLCCLRRRRSNDHLILID
stoichiometry N: 4
